Source: the supplement of paper PMC12042874
± gives the uncertainty stated by the source.

Assay: amyloid nucleation score (Sup35N fusion, yeast selection) (log enrichment); library NNK1; higher = more nucleation; inactive = no reads after selection
Method in brief: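 Sup35N was fused to peptides of 20 random codons and expressed in psi-negative yeast, which were induced with 100 μM copper sulfate for 24 hours and then grown on medium lacking adenine and uracil for 7 days at 30°C. Plasmid inserts from input and output were sequenced on Illumina. The nucleation score is the DiMSum log enrichment of output over input reads, centred on the mode score of non-aggregating sequences. Sequences with under 100 input reads were left out, and random libraries had three technical output replicates.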

Substance	amyloid nucleation score
NSYVLVNCALLRLGRINVFY	7.56 ± 0.077
NTLYVGWCMGFV	-0.354 ± 0.3
NTMPSGWNRYTVYG	-0.634 ± 0.44
NTQRTLIFSPMFVSRRLNLA	2.64 ± 0.16
NTRAPFLKHLNYFAYTTFII	0.123 ± 0.22
NTSVLLTVLVG	0.822 ± 0.46
NTVCSAMRW	4.14 ± 0.091
NTYGAGSLGITWQQVCLTYE	0.767 ± 0.62
NTYVYNDKGVRNIWKKLVYT	inactive
NVDSRFD	-1.1 ± 0.81
NVGGFQSLPEYNSYRMRAEQ	0.26 ± 0.56
NVLVQGFG	-0.017 ± 0.66
NVMVTFFGCIRKWRSNWSQE	-0.016 ± 0.48
NVPCRVLRFGHLSDIGIDCQ	0.705 ± 0.9
NVPIPRAFRDNRTL	0.577 ± 0.5
NVQGSHSCSISCYIMPGRAM	5.56 ± 0.077
NVRALILIKNCSPQMLRNEF	5.07 ± 0.06
NVRDLSMISLGAEVWGRIAV	0.619 ± 0.81
NWCVLALIN	1.83 ± 0.43
NWHVGIIGWRCMGHTQKYVN	0.038 ± 0.22
NWIGS	1.44 ± 0.41
NWNSR	0.197 ± 0.64
NWRQEYVFAY	-1.37 ± 2.4
NWSFEWWTSIAMEQ	-0.222 ± 0.42
NWSHGLLTPNVCW	-0.573 ± 1.4

Substance	amyloid nucleation score
NWVAYIPKDNVWVVRGKLKG	0.753 ± 0.53
NWVRLFQFILTRYSAFAHFR	-0.264 ± 0.34
NYALGFRAAWIIRLLRWSVE	0.254 ± 0.57
NYEYRDYASDERLYGSGTML	0.103 ± 0.37
NYFTRFVTGDGLSFLMRVAT	0.487 ± 0.82
NYHFDWLRFFRHQREVGEVA	0.4 ± 0.8
NYIGYLYLFDFCEHDLCRCF	6.62 ± 0.074
NYQWIRIVIMYVLSMTASLS	inactive
NYRSGVLELWYGRSMPWS	0.327 ± 0.42
NYTTSMNPLHFVACK	inactive
NYVEVINNFHAFVRVLFEIL	4.09 ± 0.15
NYYDSRFGLHIVLELWVARL	0.431 ± 0.2
NYYFAKSLLHI	1.27 ± 0.79
NYYIRRTCMSTYYVRVLIKS	0.522 ± 0.39
PAGTGINLMICVARGGRTSG	5.24 ± 0.1
PAMLPLTAMFLLHGRYVLTP	-0.384 ± 0.8
PATELLYNVCGGY	0.044 ± 0.38
PAVIILVIKMHGGIKGKDGR	-0.755 ± 0.44
PCCWLPRGDTLDYTQHR	-0.065 ± 0.98
PCKSCGLKFTRW	0.235 ± 0.39
PCLLCVYCMFL	4.53 ± 0.055
PCPSINWLMIINNR	7.743 ± 0.051
PCQFMASSYFHK	inactive
PCTGLRHGLHEFMSRYPDRD	0.215 ± 0.97
PDSARSECAGRVNLFVFRAR	0.559 ± 0.32

Substance	amyloid nucleation score
PDSFCFTMHLRKDEMMTSCK	-0.053 ± 1
PEHRSGNKNMYLYRSRDDMN	0.012 ± 0.7
PERNNEYHVMLTRHRCHQGC	-1.41 ± 2.4
PFCGTFVCGVGLWIRVNCNR	0.728 ± 0.74
PFFWFH	-0.482 ± 0.26
PFIWDDLAETVLNK	0.144 ± 0.27
PFMLRSNGQWTSYINCIFIS	7.865 ± 0.068
PFNMVWMRKYHLRSR	-0.378 ± 0.34
PFRNKNQMRWDMKM	0.209 ± 0.37
PFSGFLCSRVCAMVDKTLFS	inactive
PFTVTKFRSYEISVINLPNW	1.34 ± 0.11
PFVARQHMNPFTVVGTNLCH	-0.376 ± 1.9
PFVDVTRHRNSPS	1.01 ± 1
PFYLDSGADVTEPGHLGFYG	0.158 ± 0.37
PFYSETDDSRYIDVRRVFCF	inactive
PGARSLLGSYYV	0.058 ± 0.84
PGNGTGVSTDGWVTLMHRRR	-0.709 ± 0.53
PGPRVNHTRCVM	1.52 ± 0.85
PGRYSISGSEHMPVYLYTFH	inactive
PGSWVTESLMTYRLCNLSNV	0.455 ± 0.35
PGWYFDTGSAPLQVSRRSGL	0.66 ± 0.63
PHFLGQFYSDVPCDCGLCWY	0.193 ± 0.9
PHGHVEYLIFFCNKPGSHGS	1.49 ± 0.3
PHQPRILM	-0.387 ± 0.36
PHSMYCGETWLSLDCQMQFM	-0.009 ± 0.74

Substance	amyloid nucleation score
PHYFFS	-0.593 ± 0.39
PIGLMGFRLSSICLSIRTLP	-0.469 ± 0.65
PIMWCWHAVMSLS	inactive
PISSGNCSTRLGSFSSWYSV	-0.485 ± 0.68
PITILVVFNLQKY	6.242 ± 0.046
PKFCWAWSYALMGNKNLKSC	-0.715 ± 0.34
PKMGSGHSWTRGQYICHS	-0.301 ± 1.1
PLCPSGRNYVS	-0.159 ± 0.25
PLFNNSRRCWGFGSLEDYLL	0.213 ± 0.53
PLLGASSRYDHAMLCGNRTF	0.127 ± 0.33
PLLMGEEFRYSFSLCYNTSS	-0.548 ± 1.7
PLLVYIFNFHCYHLVNAMTV	2.2 ± 0.32
PLLYLPNWLISCFYLLF	0.263 ± 0.53
PLPVVA	0.225 ± 0.5
PMVRMQYDPYIKTMCVVWMR	-0.195 ± 1.2
PNDSYNGL	-0.421 ± 0.46
PNYEVDCDMFYSSFVGGFRV	0.173 ± 1.4
PPHIRKAGMRTFMGGLGLRG	0.619 ± 0.67
PQGSVGLEFKNYCVRAACGF	0.078 ± 0.93
PQKHSFAWHRMVATLALSYR	1.17 ± 0.93
PQRRGHIRIDRILSSTWTVA	0.197 ± 0.39
PRYMTLGVVWSMSGWSESVQ	1.04 ± 0.52
PSFNLNFVRINLQDGNMRLS	7.038 ± 0.048
PSGCFVWEML	inactive
PSLYACGQKPRSEALDARWL	inactive

Substance	amyloid nucleation score
PSYHGYLGLSNPVRYRMCV	0.197 ± 0.28
PTETVMMRRIFGSRGPWYAV	0.286 ± 1.4
PTRDCRVNKGSLMWTP	-0.213 ± 0.59
PTRPMTTELRRKVRRPALDG	-0.139 ± 0.62
PTSLLLGINYCLFWSIYLRD	1.81 ± 0.16
PTSSGNATAWRNLNLLLCEL	0.328 ± 0.97
PVARTPHWVLAVRWHALIWG	1.4 ± 0.29
PVDFNQYVVSGLQDLLHYAG	inactive
PVGYYILGMNGRVMNWSQRQ	1.73 ± 0.52
PVKGGVMGF	-0.35 ± 1.4
PVLSTYFHAKLQNTWMPGNR	-0.941 ± 0.77
PWKWF	-0.224 ± 0.43
PWSALTASGTKISSSKSRLG	-0.331 ± 0.93
PYAAGENWWMCLQRVPVTIV	0.027 ± 0.67
PYCFYPRCC	0.015 ± 0.85
PYFLGGRA	-0.809 ± 2.1
PYKTWRYSSRIFYWAALPMV	-0.842 ± 1.7
PYMVSGSWPKFRT	0.041 ± 0.58
PYSWVEKASY	-0.322 ± 0.78
PYWVYEHSTC	-0.726 ± 0.63
QAKGLALLCV	-2.17 ± 2.7
QCANAVNHRTLGLMLFKMVL	0.19 ± 0.5
QCHVVDFRRKYLELRSSLRY	inactive
QCKRFCCIWVCNADFVAGAW	7.745 ± 0.045
QCMARVSQFFWFMLTWK	0.748 ± 0.27

Substance	amyloid nucleation score
QCMSMSYPFMPRTHQRTVLK	-0.179 ± 0.31
QCVGPSVCVFVHRLVGCYRA	3.34 ± 0.098
QDTRTLQGCRQWQRWITAEG	0.678 ± 0.84
QFFLNTRLSLFALYL	5.35 ± 0.059
QFSCFMMFIIYE	4.16 ± 0.064
QFTRLCMLRNTLFTVVENQA	0.383 ± 0.65
QFVMINYSSSNVASPNLLRI	0.94 ± 0.3
QFVQAGRKLGNNVDGWKYVC	-0.997 ± 0.5
QFYKGRNSFNERSSSNVLRY	inactive
QGAGILTYPRALRHWVVRRM	0.12 ± 0.51
QGCMATYSGVGDACWGVRVS	0.678 ± 0.56
QGFRVWKLNTIKRHSWMGFA	0.772 ± 0.44
QGPVGVSYILHDFIIML	5.94 ± 0.093
QGSDASVGTAVGSTWEVCCC	-0.334 ± 0.36
QHCARTAGVSVARVVVSNCG	0.161 ± 0.41
QHTFQAMISKSNVSEMSPGT	-0.174 ± 0.59
QHVFWIYPLPTLSSYGTARS	-0.227 ± 1.9
QISSTRIDW	-0.074 ± 0.32
QKMYDILVIDLYESGDRPFV	0.532 ± 0.29
QKSLSVEPDAH	-0.557 ± 0.37
QLLSRLGIS	-0.641 ± 1.4
QLPAFGINMSRLSNSCSYGC	0.095 ± 0.59
QLTSACWYAVTGGGSTAGEG	-0.965 ± 1.4
QLVKSVY	-0.166 ± 0.35
QMGIMFALILQMYFSKFQDW	-0.182 ± 0.21

Substance	amyloid nucleation score
QMKVISLVRHE	inactive
QNIGGFMARFIIFILLYDHW	0.714 ± 0.84
QNIYFFKCAKHSKVNRSDMS	1.91 ± 0.55
QNSENMFDINVLTWGCHMAM	inactive
QPFTWVLQKNTRT	0.714 ± 0.58
QPSKCGAWGPLFIAGVGLTQ	0.231 ± 0.33
QRFQAGPCRFSE	-0.394 ± 0.95
QRFRTLCNLVFYLGSKVRET	0.317 ± 0.3
QRHSLNDNCRCLRYPQHSPN	1.07 ± 0.73
QRIVTG	-0.123 ± 0.59
QRRYRDTAGLNRNIRNICSK	-0.257 ± 0.72
QSAAFIIDLLTVFRKMEEVM	-0.666 ± 0.66
QSETDQIFEVFFSDWHSCTK	0.777 ± 0.97
QSWHEWDM	inactive
QTCAYGLRNTTSTVCLYRWG	0.294 ± 0.53
QTFSNPFFVLYLSNRLIPKV	1.82 ± 0.29
QTNKLEGVANSGKIITNKSG	0.021 ± 0.97
QTSIWFGDYYRKLSLCWHRP	3.63 ± 0.097
QTTTLYRFCCEWQSPASVVM	0.333 ± 0.97
QVFKHGSPGHMLALCQRAV	1.39 ± 0.63
